In US20180244787A1 (Sanofi, published 2018):
Residue numbers refer to the chain shown, from its start.

T1: recombinant human CXCR3 (human, UniProt P49682 1-368, limits assumed)
T1 construct: also called C-X-C motif chemokine receptor 3
T1 sequence (looked up): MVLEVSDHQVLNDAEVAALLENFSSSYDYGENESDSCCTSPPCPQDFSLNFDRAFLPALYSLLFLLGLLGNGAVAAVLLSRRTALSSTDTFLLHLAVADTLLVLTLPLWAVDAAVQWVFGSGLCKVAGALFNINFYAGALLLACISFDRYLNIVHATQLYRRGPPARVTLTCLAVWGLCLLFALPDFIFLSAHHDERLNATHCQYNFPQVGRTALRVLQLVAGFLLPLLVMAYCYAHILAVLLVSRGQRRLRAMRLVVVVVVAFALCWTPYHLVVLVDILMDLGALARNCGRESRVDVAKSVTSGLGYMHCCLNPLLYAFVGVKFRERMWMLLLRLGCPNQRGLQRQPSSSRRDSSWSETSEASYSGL

B1: humanized clone 53 HuAntibody 23 (antibody, V domains shown)
VH: EVQLLESGGGLVQPGGSLRLSCAASGFTFTSYAMSWVRQAPGKGLEWVAVISHGGTYTYYADSVKGRFTISRDNAKNTLYLQMNSLRAEDTAVYYCARHPIYSGNYQGYFDYWGQGTLVTVSS
VL: DIQLTQSPSFLSASVGDRVTITCRASSGVNYLYWYQQKPGKAPKLWIYFTSTLAPGVPSRFSGSGSGNEYTLTISSLQPEDFATYYCQQFTSSPYTFGGGTKLEIK
notes: humanized anti-human CXCR3 mAb
B2: humanized clone 53 HuAntibody 24 (antibody, V domains shown)
VH: B1 VH with V50T, A61P, V93M
VL: B1 VL
notes: as for B1
B3: humanized clone 53 HuAntibody 27 (antibody, V domains shown)
VH: B1 VH with V50T, A61P, V93M
VL: B1 VL with G99Q
notes: as for B1
B4: humanized clone 53 HuAntibody 26 (antibody, V domains shown)
VH: B1 VH
VL: B1 VL with G99Q
notes: as for B1
B5: humanized clone 53 HuAntibody 35 (antibody, V domains shown)
VH: B1 VH with V50T, A61P, V93M
VL: B1 VL with P55S, G99Q
notes: as for B1
B6: humanized clone 53 HuAntibody 30 (antibody, V domains shown)
VH: B1 VH
VL: B1 VL with P55S
notes: as for B1
B7: humanized clone 53 HuAntibody 33 (antibody, V domains shown)
VH: B1 VH with V50T, A61P
VL: B1 VL with P55S
notes: as for B1
B8: humanized clone 53 HuAntibody 29 (antibody, V domains shown)
VH: B1 VH with V50T, A61P
VL: B1 VL with G99Q
notes: as for B1
B9: humanized clone 53 HuAntibody 34 (antibody, V domains shown)
VH: B1 VH
VL: B1 VL with P55S, G99Q
notes: as for B1
B10: humanized clone 53 HuAntibody 31 (antibody, V domains shown)
VH: B1 VH with V50T, A61P, V93M
VL: B1 VL with P55S
notes: as for B1
B11: humanized clone 53 HuAntibody 25 (antibody, V domains shown)
VH: B1 VH with V50T, A61P
VL: B1 VL
notes: as for B1

Each binder was assayed against T1, recombinant human CXCR3 (assay: binding kinetics; method and antigen not given).
With B1 the Kd was 0.322 nM, the koff was 2.45e-05 s⁻¹ and the kon was 75600 M⁻¹ s⁻¹. Work on B2 yielded a Kd of 0.0614 nM, a koff of 6.16e-06 s⁻¹ and a kon of 101000 M⁻¹ s⁻¹. B3 was tested, and the Kd was 0.0737 nM, the koff was 8.34e-06 s⁻¹ and the kon was 113000 M⁻¹ s⁻¹. Work on B4 yielded a Kd of 0.537 nM, a koff of 5.46e-05 s⁻¹ and a kon of 101000 M⁻¹ s⁻¹. B5 showed a Kd of 0.0456 nM, a koff of 4.73e-06 s⁻¹ and a kon of 102000 M⁻¹ s⁻¹. For B6, the Kd was 1.34 nM, the koff was 0.000126 s⁻¹ and the kon was 93700 M⁻¹ s⁻¹. For B7, the Kd was 0.656 nM. For B8, the Kd was 0.303 nM, the koff was 3.5e-05 s⁻¹ and the kon was 115000 M⁻¹ s⁻¹. For B9, the Kd was 1.03 nM, the koff was 9.19e-05 s⁻¹ and the kon was 88900 M⁻¹ s⁻¹. In the case of B10, the Kd is reported as 0.449 nM, the koff is reported as 5e-05 s⁻¹ and the kon is reported as 111000 M⁻¹ s⁻¹. Binder B11 has a Kd of 0.623 nM, a koff of 6.21e-05 s⁻¹ and a kon of 99500 M⁻¹ s⁻¹.
